In the DeepSol protein solubility set:

Test: soluble on expression in E. coli; label from the status in PepcDB or PDB records
With “MSSARLVIAGLNGGTGKTILSLGTVRALTNAGHSVKPFKKGPDYIDAEWLGLAAGRAATNLDPFFLDAARLQSLFLHASAGASISIIEGNRGLYDGRDVTGSCSTAELARILDSPVVLAMDCTKMTRTAAAILSGVAAFEPGVKLAGVVLNRTANERHRSMLRQCIEHYTDIPVLGALPRLRDNPIPERHMGLVSDREFAQCAGELDRVAQFVAQHVDVERMAEIARSAQPLASNEPFWPVVAEGDGVRPRIGYVRDAALWFYYEENLEALRQAGADLVELRIIDGDPWPTLDGLYLGGGFPETLASELSACRERLAGIREAALAGLPVYAECGGFMVLGESIVMDGVEYPMSGVFPVQTVFHPKPQGLGYVEAEVVAENPFFPQGMVFRGHEFHYSACRPRDGGAVTHALRLNPGTGMGGGADGLVQANTFAAYTHIFGPAVQGWAERFVRAARGHRDQLNKGTDLSLEHHHHHH” the “soluble on expression in E. coli” value was “not soluble”.
In the case of “MGSDKIHHHHHHMRKMMNEQLPISKSSPLKARFYDYPYFTYPWHFHTEYEIIYVKEGTGMRFVGNNAEKYADGDILLLGSDLPHYMKSDEVYRQEGSTLRTTGTIIQFEKDFMHHAFNYYPHFMKIKNLLEEAQRGIYFPAGCSPRLVDLLESIPVETGVDQITSFLQLLKEMANVASRSVLSTSDFENDIIYDGSRIDKIIVYLNKNYTRQIDLNEISSLAAMNPAAFCRFFKSKTGKSFKNYILEMRIGYACKLLLMGDMNISQISVECGFDTISHFNKSFKKHTGFTPSYYKRMMLAE”, the “soluble on expression in E. coli” value is reported as “not soluble”.
With “MGSDKIHHHHHHMQLKNVQRSYALTLGEKTGSTINVGVFAQKRAKKCTQAPLSIILELSRNKERIGAACTMNFTMDLPGLKGVKVTKMEEREDFIALHVEMPRTPHRCPSCGERTERIHDYRIQKVQHLKLFERWVYLFYRKRRYACRCGKRFAEKACFVERYQRQTVEWNQAFRLRLIQGKNFTDTANQFQTSVTTAMRRFDQLAAPLVKKVDHLPPRIAIDDYKGDTNAGKYQVIIADADTRKPLDILPDRKADTLKRYLQEKGHHVKTVVMDLSYTFKSAVQKALGHPLIIGDPFHFCRYIYWALEGVRRRVQKAFHPYHRKRCKRIKHLFQKEREGLDDKQKKKVERYLELSPDLREAYELKEHFRQWYQEAKMQGREGRMSEVKQGLYAFYRRVEASPLKEFHRAIQTLKNWQTEILNSFAFGLNNGFIEGLNNQTKVIKRNAFGFRRYDRLRNRILLHHQFKHQTFGVG” the “soluble on expression in E. coli” value was “not soluble”.
In the case of “MPPPTNQFKHDNIPLQTQGCEINVLCVRNPRARRIKLSVDERGVRLILPPCADLDAGTRFLLEQRAWIETQMARYASGTAATIPLRRGETTALPLRDQQLPLHWHESRYTRLELDAHGLQFYITTHTNDNTLRHTLREFYEVQARVDISDWLRKYLPGLPRPPTRVRLKPMSSQWGSLATAGHMALDLALVLGRPSAFEYVVVHELCHLIQANHSPAFWREVECRFPLWREERDYFHLKGRILKAQLRRLLQTELEHHHHHH”, the “soluble on expression in E. coli” value is reported as “not soluble”.
In the case of “MGSDKIHHHHHHMSELTLLADADERGRRYLAGNAQRRVFPDADALSALARFNEALPQQGFSPEDTLTLLDEVGSPATTASNGPNYFGFVIGAALPIAAASERLMIAWDQCASTFDNSPVSATLERLASRWVLDILKLPKESAVGFGTSATACTLSCLVAARRAMLAKQGWDFDNDGLIGAPEIKVVISALTHITVKKALRVLGFGLRHIIVAPVNAFGQIDVTQLPPLDDRTILCLQAGEVNTGEFDDFAQIIPIAKAAGAWVHVDGAFGLWARASSHAALTESIELADSWTTDAHKWLNTPYDCAMAICRNADALAEAMNADAVYSSAARDAQKNLTLEFSRRPRGIPVWAVLRTLGRDGVAEMIERHCRQATLIADGLRHAGFEVLNRVVLNQVLLRGETDSQTTAIREALQASGKAWFGGTVWQGRPALRISVSSWRTQDDNVQALIALLTEIKAKTPR”, the “soluble on expression in E. coli” value is reported as “not soluble”.
For “MAFNTRANAEKYLATCYNFVPAAANLDHNSGLICGGEMWYLKPESHYYKNITSFNIARGMQNSNDPLLNYWDGGQGGYNIFRGIHECNIFIDNIDRVPDMRMEEKNKWKAEVMTLKAYYIYYLMLHYGPIPLLKENISVEADLDMMQLERETINDIVTYTTDLLDEAMNIPSGLTFNVTSPRTELGRITLPIAKAIKAKLLILAASPLFNGNTMYAEFVNSEGIPFFDQEYKKEKWEAAAAACLDAINTAHEAGASLYKFDEKLNYTPSSTLQQELTLRNTITGRFNSEIIWALGSNATDGIQNLCQAHLTSYSLGNRMIRSCSQLVPSLEIVEQFYTANGVPMDEDKDYEYENRYKLTTTPEDDPIHFTPNYTTIKMHLNREPRFYAYIGFDGGKWFSIECCNDNETSSYPIKSKKGDIAGVSDELYSPTGYFTKKLVSYQNVNTSATNINYVYSFPIIRLSDLYLLYAEALNELNETPTTDVYYYVQQVRNKAGLDEGGSLVNTWRNHSNRPDKPTTQRGMREIIQKERMIELAFEGHRYHDVRRWKLGSTYLNTQIKGWSVLEQDPEYFYNVRVLFTRKFMPRDYLWPIKTNSINRNPKLVQNPQW”, the “soluble on expression in E. coli” value was “not soluble”.
For “MTLEEARKRVNELRDLIRYHNYRYYVLADPEISDAEYDRLLRELKELEERFPELKSPDSPTLQVGARPLEATFRPVRHPTRMYSLDNAFNLDELKAFEERIERALGRKGPFAYTVEHKVDGLSVNLYYEEGVLVYGATRGDGEVGEEVTQNLLTIPTIPRRLKGVPERLEVRGEVYMPIEAFLRLNEELEERGERIFKNPRNAAAGSLRQKDPRITAKRGLRATFYALGLGLEEVEREGVATQFALLHWLKEKGFPVEHGYARAVGAEGVEAVYQDWLKKRRALPFEADGVVVKLDELALWRELGYTARAPRFAIAYKFPAEEKETRLLDVVFQVGRTGRVTPVGILEPVFLEGSEVSRVTLHNESYIEELDIRIGDWVLVHKAGGVIPEVLRVLKERRTGEERPIRWPETCPECGHRLLKEGKVHRCPNPLCPAKRFEAIRHFASRKAMDIQGLGEKLIERLLEKGLVKDVADLYRLRKEDLVGLERMGEKSAQNLLRQIEESKKRGLERLLYALGLPGVGEVLARNLAARFGNMDRLLEASLEELLEVEEVGELTARAILETLKDPAFRDLVRRLKEAGVEMEAKEKGGEALKGLTFVITGELSRPREEVKALLRRLGAKVTDSVSRKTSYLVVGENPGSKLEKARALGVPTLTEEELYRLLEARTGKKAEELV”, the “soluble on expression in E. coli” value was “soluble”.
With “TNSAVVDVSFGFPSLVGFTFMSEMVHQFKMTFPKARVSMYEAQLSAFLPAIRDGRLDFAIGTLSDEMKLQDLHVEPLFESEFVLVANRARIGNGTVRLASLQHEQWVLPETNMGYYSELLTTLQRSGIRRENIVNTDSVVTIYNLVLNAD” the “soluble on expression in E. coli” value was “not soluble”.
In the case of “MVSLPVVLIADKLAPSTVAALGDQVEVRWVDGPDRDKLLAAVPEADALLVRSATTVDAEVLAAAPKLKIVARAGVGLDNVDVDAATARGVLVVNAPTSNIHSAAEHALALLLAASRQIPAADASLREHTWKRSSFSGTEIFGKTVGVVGLGRIGQLVAQRIAAFGAYVVAYDPYVSPARAAQLGIELLSLDDLLARADFISVHLPKTPETAGLIDKEALAKTKPGVIIVNAARGGLVDEAALADAITGGHVRAAGLDVFATEPCTDSPLFELAQVVVTPHLGASTAEAQDRAGTDVAESVRLALAGEFVPDAVNVGGGVVNEEVAPWLDLVRKLGVLAGVLSDELPVSLSVQVRGELAAEEVEVLRLSALRGLFSAVIEDAVTFVNAPALAAERGVTAEICKASESPNHRSVVDVRAVGADGSVVTVSGTLYGPQLSQKIVQINGRHFDLRAQGINLIIHYVDRPGALGKIGTLLGTAGVNIQAAQLSEDAEGPGATILLRLDQDVPDDVRTAIAAAVDAYKLEVVDLS”, the “soluble on expression in E. coli” value is reported as “soluble”.
With “SREGVLYDGDSLAYIIAKHRQQLGELQGGVAGTLMTNLAVEQAFERLGIPFARANVGDRYVSELLQQNDWYLGAENSGHIICRDKHTTGDGIISALQVLYALRDTGLTLADFMRDVPFF” the “soluble on expression in E. coli” value was “not soluble”.
With “MGSDKIHHHHHHMNQFKMSLFLPPISPVKDSATGRTVQPPTLTPYKEITLQEVYKLITSSERLKTLTETVRRAAENGDEKAYRMLKQQTLPYVTPCGVFSYRKSDSLTGPSGLIVVDIDHLDSRGEAEKLKRQLFDDRLLRPVLAFTSPGGRGVKAFIPYDLARIPDTRQNTSENIHWAMNYVQAIYDSHPDGEDKKTSRSGKGVDRSGKDLVRACFLSYDEEALIRREI” the “soluble on expression in E. coli” value was “not soluble”.
For “MGSDKIHHHHHHMRDHVEIGIGREARRTYSLDDISVVSSRRTRSSKDVDTTWHIDAYKFDLPFMNHPSDALASPEFVIEMGKQGGLGVINAEGLWGRHADLDEAIAKVIAAYEEGDQAAATRTLQELHAAPLDTELLSERIAQVRDSGEIVAVRVSPQNVREIAPIVIKAGADLLVIQGTLISAEHVNTGGEALNLKEFIGSLDVPVIAGGVNDYTTALHMMRTGAVGIIVGGGENTNSLALGMEVSMATAIADVAAARRDYLDETGGRYVHIIADGSIENSGDVVKAIACGADAVVLGSPLARAEEAAGKGYFWPAVAAHPRFPRGVVTESVDLDEAAPSLEQILHGPSTMPWGVENFEGGLKRALAKCGYTDLKSFQKVSLHVN”, the “soluble on expression in E. coli” value was “not soluble”.
In the case of HHASPRKQGKKENGPPHSHTLKGRRLVFDN, the “soluble on expression in E. coli” value is reported as “soluble”.
For “MKKDVTQKQTIIKFENGHLYTASDSCITEMPLTIKVNEFKFATIICSRNYLEELTLGFLASEGIFLKRNDLQSIHIDESKGFAHVKLTQSVGHHFEHPTKRVLASCCGKSRAFYFQNDAAIAKTSMTTILEHHHHHH”, the “soluble on expression in E. coli” value was “not soluble”.
For “MGSDKIHHHHHHMIIDEISLFILDMDGTLTLEPSSWDYVHRRLGINNHSVTRLYRNRYINYYCFFQSDIKAWLHKYPNLKKEKVVEFLREVPIRHGADELINVLRKNGIRTAVISGGISWLFDIISERSKIDYNFSNEIFTDEYGYIVPEGKVRVIPEEKDLVVRKIQEELGIGKDQTASVGDEMENDRIHRYSKYRFIISKKARDNLIPIPSGDLEDLLRILE”, the “soluble on expression in E. coli” value was “not soluble”.
For “MSTDITPSSAPQCPDHIVFEHVTKEFRTRSGTVRALDDVSLAIKRGSISAVIGHSGAGKSTLVRLINGLETPTRGRVLVDGTDVSQLSDKAMRPLRADIGMIFQQFNLFGSRTIYDNVAYPLKLAHWKKADEKKRITELLSFVGLTSKAWDHPDQLSGGQKQRVGIARALATKPSILLADESTSALDPETTADVLSLLKRVNAELGVTVVVITHEMEVVRSIAQQVSVLAAGHLVESGSARQVFAHPQSETTQRFLATIIGQHPNGEEQARLQSENPHARLVDVSSVASHSFGDALARISHTGASFQIVHGGVIEVHDGSLGNYTVALSGPAQAVEQAVQILEEVSNSAAPTTSATVPTPTEEAHLEHHHHHH”, the “soluble on expression in E. coli” value was “not soluble”.
For “VSIAQAQVVVSSKIDTEGGVLGNIILAVLNQNKIETTDRIQLGATPVVRKAITAGEIDIYPEYTGNAAFFFSKADDPLWKDAAKGYEEAKTLDYDANKIVWLAPSPANNTWAIALRKDVADKNNLKTLSDFGKYVAGGGTVVLAASSEFVNSAAALPAFQTTYGFTMKPDQLITLSGGDTAATIAAAANQTNNANAAMVYGTDGGIAPSGLVVLEDDKHVQPVYQPAPIIREEVLKKHPNIEELLKPVFEKLDLATLQDLNARVQVGGEQAKTVAMDFLTKNGFAK”, the “soluble on expression in E. coli” value was “soluble”.
With “MTLPPDAPSRHRLVHALERTADLLDILGGEDFKSRAYRSAARSLEELNEETPELLAREFTGIPKVGKGIAAELSDFARSGTFAPLEAAAGQLPPGLLDLLGVRGLGPKKIRSLWLAGIDSLERLREAAESGELAGLKGFGAKSAATILENVVFLFEARQRQSLRAGLAVAEELAGALTDLSPAPAGDVRRGLETVRAAELTVTGTPDDVLARLPELTVQGDGVLSGDYEGVPVEIACAPAEARGALDLLRSGEHFAGQVQAAAQARGFTLTAGGLSRGDEVLPTPTEAVVFHALDLPFRPAEYREPEHDDLWQTLPDPAELVTVGDLRGMIHTHSTWSDGGASIREMAEATLTLGHEFLGTADHSRAAYYANGLTIERLREQLKEIRELQRAGLPIVAGSEVDILDDGSLDFPDDVLGELDYVVVSVHSNFTLDAARQTERLIRAVSHPLVTVLGHATGRLLLRRPGYALDLDAVLGACEANGTVVEINANAARLDLDWREALRWRERLKFAINTDAHVPGGLRDARYGVMQARKAGLTPAHVVNSLGRAEFLDFVARQRAARGAPGPADRAHHHHHH” the “soluble on expression in E. coli” value was “soluble”.
